Reference: the nanobody polyreactivity screen of Harvey et al. (2022)

Test: yeast display, Sf9 membrane polyspecificity reagent, FACS + sequencing; frameworks hold sequencing errors
How it was run: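 Nanobodies from a synthetic yeast display library (Saccharomyces cerevisiae BJ5465), induced 36–48 hours with galactose, were stained 1 hour at 4 °C with 10% biotinylated, detergent-solubilized Sf9 membrane reagent, enriched on streptavidin microbeads, then FACS-sorted. Anti-HA (expression) and streptavidin (reagent binding) fluorescence set low and high (top ~1%) gates. Polyreactivity labels come from the gate of origin. Genes were colony-PCR amplified, MiSeq 2 × 250 sequenced and filtered by CDR length.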

Sequence | polyreactivity (PSR sort gate)
QVQLVESGAGLVQAGGSLRLSCAASGFTFYYNAMGWYRQAPGKERELVASISSNGTSTYYADSVKGRFTISRDYAKNTVYLQMNSLKPEDTAVYYCNVDIFDPRTYDYWGQGTQVTVSS | low polyreactivity
QVQLVESGGGLVQAGGSLRLSCAASGSIFRKYAMGWYRQAPGKERELVAAITGSGGSTYYADSVKGRFTISRDNAKNTVYLQMNSLKPEDTAVYYCAAPFGWRPLPISKVTSDYWGQGTQVTVSS | high polyreactivity
QVQIVESGGVLVQAGGSLRLSCAASGLTLKRYAMGWYRQAPRKERELVASITGSGGSTYADTVKARFTISRDNAKNTVYLHMNSLNPEDTAVYYCAKDTRYEYVGSEYCFWGQGTQVTVSS | low polyreactivity
QVQLVESGGGLVQAGGSLRLSCAASGSTLAVYSMGWYRQAPGKEREFVAAISWSGVSTYYADSVKGRFTISRDNAKNTVYLQMNSLKPEDTAVYYCAAKRVRALYGGSEGGYWGQGTQVTVSS | low polyreactivity
QVQLLESGGGLVQAGGSLRLSCAASGRIFSAYAMGWSRQAPGTERELVAAISWSGGSTYYADSVKGRFTISRDNAKNTVYLQMNSLKPEDTAVYYCAADYFYTSWYQHDYWGQGTQVTVSS | low polyreactivity
QVQLVESGGGLVQAGGSLRLSCAASGRTFILNAMGWYRQAPGKERELVAAISWSGGSTYYADSVKGRFTISRDTAKNTVYLQMNSLKPEDTAVHYCATVRAWIPSGDYEYWGQGTQVTVSS | low polyreactivity
QVQLEESGGGLVQAGGSLRLSFAASGYTFDPYDMGWYRQAPGKERELVASISWSGGDTYYADSVKGRFTISRDNAKNTVYLQMNSLKPEDTAVYYCAADRYIPRSIIMDYWGQGNQVTVSS | low polyreactivity
QVQLVESGGGKVQAGGSLSLSCAASGSTFVVNAMGWYRQAPGKERELVAAIDGSDGSTYYADSEKGRFTISRDNAKNTVYLQMNSLKPEDTAVYYCAAEVLGRPDVENDYWGQGTKVTVSS | low polyreactivity
QVQLVESGGGLVQAGGSLRLSCAASGRTSSSYAMGWSRQAPGKERELVASITSSGRTYYADSVKGRFTISRDNAKNTVYLQMNSLKPEDTAVYYCAAPFYRVRGWYARTPYGYWGQGTQVTVSS | high polyreactivity
QVQLVESGGGLVQAGGSLRLSCAASGNIFPWYAMGWYRQAPGKERELVASITVSGGRTYYADSVKGRFTISRDNAKNTVYLQMNSLKPEDTAVYYCNKYLVWYVPGAYNSWGQGTQVTVSS | high polyreactivity
QVQLVESAGGLVQAGGSLRLSCAASGSTFVANAMGWYRQAPGKERELVARISRSTGSTYYADSVKGRFTISRDNAKNTVYLQMNSLKPEDTAVYYCAAPSVYYPQFDYWGQGTQVTVSS | high polyreactivity
QVQLVESGGGLVQAGGSLRLSCSASGRTFGYNAMGWYRQAPGKEWELVAAIRTIGDSTYYADSVKGRFTISRDNAKNTVYLQMNSLKPEDTAVYYCAARNLRSRYDYWGQGTQVTVSS | high polyreactivity
QVQLVESGGGLVQAGVSLRLSCAASGSFFGYYTMGWYRQAPGTERELVAAISASGGSTYYADSVKGRFTISRDNANNTVYLQLNSLKPEDTAVYYCAATSAANFPRGYYYWGQGTQVTVSS | high polyreactivity
QVQLVESGGGLVQAGGSLRLSCAASGRIFYAYAMGWYRQAPGKERELVATITGIGGSTYADSVKGRFTISRDNAKNTVYLQMNSLKPEDTAVYYCNAAKWLTSGGLDYWGQGTQVTVSS | high polyreactivity
QVQLVESGGGLVQAGGSLRLSCAASGRIFYGYAMGWYRQAPGKERELVAAITRGGSTYYADSVKGRFTISRDNAKNTVYLQMNSLKPEDTAVYYCAAVIYSYRSYREYGYWGQGTQVTVSS | high polyreactivity
QVQLVESGGGLVQAGGSLRLSCAASGFTFKYKAMGWYRQAPGKERELVAVISSSGGRTYYADSVKGRFTISRDNAKNTVYLQMNSLKPEDTAVYYCAADTFVWADWSWHYYWRQGTQVTVSS | high polyreactivity

Sequence | polyreactivity (PSR sort gate)
QVQLVESGGGLVQAGGSLRLSCAASGSIFQVYAMGWYRQAPGNESEFVADIDWSGESTYYADSVKGRFTISRDNAKNTVYLQMNSLKPEDTAVYYCAAEDGYVTWDRDYEYWGQGTQVTVSS | low polyreactivity
QVQLVESGGGLVQAGGSLRLSCAASGIIFRLYAMGWYRQAPGTERELVAAISRRGDSTYYADSVKGRFTISRDNAKNTGYVQMNSLKPEDTAVYYCAAVYVPYYWLGRSRGLDYWGQGTQVSVSS | high polyreactivity
QVQLVESGGGLVHAGGSLRLSCAASGSIFQYNAMGWYRQAPWKERELVAAITSTGDTNYADSVKGRFTISRDNAKNTVYLQMNSLKPEDTAVYYCAADVYGTVRRVGWYYVGEGYDYWGQGTQVTVSS | low polyreactivity
QVQLVESGGGLVQAGGSLRLSCAASGFIYWYYAMGWYRQAPGKERELVAAISGTGGTTYYADSVKGRFTISRDNAKNTVYLQMKSLKPEDTAVYYCNDRYDSRRTAIGYDYWGQGTQVTGSS | low polyreactivity
QFQLEESGGGLVQAGGSLRLSCAASGRIFPTYTRGWYSQAPGKERVLVAGISYSGTSTSYADSVKGRFTMSRDNAKNSVYLELNSLKPEDTAVYYCAAKYYGRSFYYGYDYWGQGTQVTVSS | low polyreactivity
QVQLVETGGGVVQAGGSLRISCAASGRIFLYYTMGWYRQAPGIERELVATIRSGDSTIYADAVKGRFTISRDNAKNTVYLQMNTLTPEDTAVYYCAADWDIFQQGANGAPYDYWGQGTQVTVSS | low polyreactivity
QVQLVESGGGLVQAGGSLRLSCAASGSTFKPNAMGWYRQAPGKERELVAGISGRGGSTNYADSVKGRFTISRDNAKNTVYLQMNRLKPEDTAVYYCAKDAYPLWLTRYNYWGQGTQVTVSS | low polyreactivity
QVQLVESGGGLDQAGGSLRLSCAASGRTFGWYAMGWYRQAPGTERELVAVISSSGGRTYYADSVKGRFTISRDNAKNTVYLQLNSLKPEDTAVYYCATPNGSKRYSYYYWGQGTQVTVSS | high polyreactivity
QVQLVESGGRLFQAGGSLRLICAASGSIFVYNTKGWYRQSPGKERELVASISYSGGPTYYADSVKGRFTISRDNAKNTVYLQMKSLNPEDTAVYYCAADVRQRGIYGPGPHYYWGQGTQVTVSS | high polyreactivity
HVQHVESGGGLVQAGGSLRVSCAASGSIFYTNVMGWYRQAPGKERELVARIDSGGSTNYADSVKGRFTISRDNAKNTVYLQMYSLKPEDTAVYYCAADWYIYDYWGQGTQVTVSS | low polyreactivity
QVQLEESGGGLVQAGGSLRLSCAASGSIFYLNDMGWYRQAPGKEREFVAAIDSRGTSTYYADSVKGRFTISRDNAKNTVYLQMNSLKPEDTAVYYCAADSYALEYDYWGQGTQVTVSS | low polyreactivity
QDQLVESGGGLVQAGGSLRLSCAASGLTIIFNAMGWYRQAPGKERELVADISSGVNTNYADSVKGRFTISRDNAKNTVYLQMNSLKPEDTAVYYCAARLAQSTGYGYWGQGTQVTVSS | low polyreactivity
QVQLVDSGGGLVQAGGSLRLSCAASGGIFRQNVMGWYRQAPGKERELVAAISRRGGITYYAEAVKGRFTISRDNAKNTVYLQMNSLKPEDTAVYYCNKKPTWDYSYWGQGTQVTVSS | high polyreactivity
QVQLVESGGGLVQAGGSLRLSCAASGRIFRAYAMGWYRQAPGKEREFVAAITWSGGSTYYADSVKGRFTISRDNAKNTVYLQMNSLKPEDTAVYYCAARGYSYRRRSQQFDYWGQGTQVTVSS | high polyreactivity
QVQLVESGGGLVQAGGSLRLSCAASGSIFVGYVMGWYRQAPGKERELVAAISKSGSRTYYADSVKGRFTISRDNAKYTVYLQMNSLKPEDTAVYYCATAGYDADDYWGQGTQVTVSS | high polyreactivity
